Results from patent publication US20240116997A1.

What was measured:
Assay in all cases: cell-based or functional assay
[1] = target: IL-18 polypeptide SEQ ID NO: 59 (E6K, C38A, K53A) (human) (UniProt Q14116)
[2] = target: IL-18 polypeptide SEQ ID NO: 54 (E06K, K53A, C38S, C68S, C76S, C127S, K70C) (human) (UniProt Q14116)
[3] = target: IL-18 polypeptide SEQ ID NO: 37 (S55A) (human) (UniProt Q14116)
[4] = target: IL-18 polypeptide SEQ ID NO: 50 (E06K, K53A, T63A) (human) (UniProt Q14116)
[5] = target: C167 (V11I, C38A, C76A, S105I, C127A) (human) (UniProt Q14116)
Chain of C167 (V11I, C38A, C76A, S105I, C127A) (human) (Q14116 37-193 V47I/C74A/C112A/S141I/C163A): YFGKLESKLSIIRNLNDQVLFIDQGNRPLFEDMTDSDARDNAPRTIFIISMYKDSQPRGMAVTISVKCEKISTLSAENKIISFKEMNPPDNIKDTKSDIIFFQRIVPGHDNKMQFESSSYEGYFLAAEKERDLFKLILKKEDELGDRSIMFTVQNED

[6] = target: C168 (V11I, C38A, C76A, S105K, C127A) (human) (UniProt Q14116)
Chain of C168 (V11I, C38A, C76A, S105K, C127A) (human) (Q14116 37-193 V47I/C74A/C112A/S141K/C163A): as the sequence (Q14116 37-193 V47I/C74A/C112A/S141I/C163A) above, with I105K counted along it

[7] = target: IL-18 polypeptide SEQ ID NO: 43 (E06K, K53A, S55A, Y01G) (human) (UniProt Q14116)
[8] = target: IL-18 polypeptide SEQ ID NO: 60 (E6K, C38Q, K53A) (human) (UniProt Q14116)
Chain of IL-18 polypeptide SEQ ID NO: 60 (E6K, C38Q, K53A) (human) (Q14116 other isoform, or with tags, fused parts or gaps C38Q K53A C38Q K53A): as the sequence (Q14116 37-193 V47I/C74A/C112A/S141I/C163A) above, with E6K, I11V, A38Q, K53A, A76C, I105S, A127C counted along it

[9] = target: C149 (V11I, E31A, C38A, K53A, C76A, C127A) (human) (UniProt Q14116)
Chain of C149 (V11I, E31A, C38A, K53A, C76A, C127A) (human) (Q14116 37-193 V47I/E67A/C74A/K89A/C112A/C163A): as the sequence (Q14116 37-193 V47I/C74A/C112A/S141I/C163A) above, with E31A, K53A, I105S counted along it

[10] = target: IL-18 polypeptide SEQ ID NO: 35 (Y01G, F02A, E06K, M51G, K53A, D54A, S55A, T63A) (human) (UniProt Q14116)
Chain of IL-18 polypeptide SEQ ID NO: 35 (Y01G, F02A, E06K, M51G, K53A, D54A, S55A, T63A) (human) (Q14116 37-193 Y37G/F38A/E42K/M87G/K89A/D90A/S91A/T99A): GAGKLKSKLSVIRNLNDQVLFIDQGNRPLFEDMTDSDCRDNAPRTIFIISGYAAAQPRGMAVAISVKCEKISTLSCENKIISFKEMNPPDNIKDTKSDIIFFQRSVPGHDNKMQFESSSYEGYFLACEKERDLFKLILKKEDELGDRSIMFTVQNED

[11] = target: C165 (V11I, C38A, S55R, C76A, C127A) (human) (UniProt Q14116)
Chain of C165 (V11I, C38A, S55R, C76A, C127A) (human) (Q14116 37-193 V47I/C74A/S91R/C112A/C163A): as the sequence (Q14116 37-193 V47I/C74A/C112A/S141I/C163A) above, with S55R, I105S counted along it

[12] = target: C154 (V11I, E31A, D37A, C38A, K53A, C76A, C127A) (human) (UniProt Q14116)
[13] = target: C148 (F2A, V11I, C38A, K53A, C76A, C127A) (human) (UniProt Q14116)
Chain of C148 (F2A, V11I, C38A, K53A, C76A, C127A) (human) (Q14116 other isoform, or with tags, fused parts or gaps V11I C38A K53A C76A C127A V11I C38A K53A C76A C127A): as the sequence (Q14116 37-193 V47I/C74A/C112A/S141I/C163A) above, with F2A, K53A, I105S counted along it

[14] = target: C163 (V11I, C38A, C76A, Q103K, C127A) (human) (UniProt Q14116)
[15] = target: IL-18 polypeptide SEQ ID NO: 40 (E06K, S55A) (human) (UniProt Q14116)
Chain of IL-18 polypeptide SEQ ID NO: 40 (E06K, S55A) (human) (Q14116 37-193 E42K/S91A): as the sequence (Q14116 37-193 Y37G/F38A/E42K/M87G/K89A/D90A/S91A/T99A) above, with G1Y, A2F, G51M, A53K, A54D, A63T counted along it

[16] = target: IL-18 polypeptide SEQ ID NO: 46 (E06K, K53A, S55A, M51G) (human) (UniProt Q14116)
Chain of IL-18 polypeptide SEQ ID NO: 46 (E06K, K53A, S55A, M51G) (human) (Q14116 37-193 E42K/M87G/K89A/S91A): as the sequence (Q14116 37-193 Y37G/F38A/E42K/M87G/K89A/D90A/S91A/T99A) above, with G1Y, A2F, A54D, A63T counted along it

[17] = target: IL-18 polypeptide SEQ ID NO: 4 (E6K, C38A, K53A, C68A, M86C) (human) (UniProt Q14116)
Chain of IL-18 polypeptide SEQ ID NO: 4 (E6K, C38A, K53A, C68A, M86C) (human) (Q14116 other isoform, or with tags, fused parts or gaps C38A K53A C68A M86C C38A K53A C68A M86C): as the sequence (Q14116 37-193 V47I/C74A/C112A/S141I/C163A) above, with E6K, I11V, K53A, C68A, A76C, M86C, I105S, A127C counted along it

[18] = target: C160 (V11I, C38A, K53A, C76A, D110A, C127A) (human) (UniProt Q14116)
Chain of C160 (V11I, C38A, K53A, C76A, D110A, C127A) (human) (Q14116 37-193 V47I/C74A/K89A/C112A/D146A/C163A): as the sequence (Q14116 37-193 V47I/C74A/C112A/S141I/C163A) above, with K53A, I105S, D110A counted along it

[19] = target: IL-18 polypeptide SEQ ID NO: 62 (E6K, C38A, K53A, C127A) (human) (UniProt Q14116)
[20] = target: IL-18 polypeptide SEQ ID NO: 41 (K53A, S55A) (human) (UniProt Q14116)
Chain of IL-18 polypeptide SEQ ID NO: 41 (K53A, S55A) (human) (Q14116 37-193 K89A/S91A): as the sequence (Q14116 37-193 Y37G/F38A/E42K/M87G/K89A/D90A/S91A/T99A) above, with G1Y, A2F, K6E, G51M, A54D, A63T counted along it

[21] = target: IL-18 polypeptide SEQ ID NO: 57 (E6K, C38S, K53A) (human) (UniProt Q14116)
Chain of IL-18 polypeptide SEQ ID NO: 57 (E6K, C38S, K53A) (human) (Q14116 other isoform, or with tags, fused parts or gaps C38S K53A C38S K53A): as the sequence (Q14116 37-193 Y37G/F38A/E42K/M87G/K89A/D90A/S91A/T99A) above, with G1Y, A2F, C38S, G51M, A54D, A55S, A63T counted along it

[22] = target: C146 (SEQ ID NO: 79; V11I, C38A, M51G, K53A, C76A, C127A) (human) (UniProt Q14116)
Chain of C146 (SEQ ID NO: 79; V11I, C38A, M51G, K53A, C76A, C127A) (human) (Q14116 37-193 V47I/C74A/M87G/K89A/C112A/C163A): as the sequence (Q14116 37-193 V47I/C74A/C112A/S141I/C163A) above, with M51G, K53A, I105S counted along it

[23] = target: IL-18 polypeptide SEQ ID NO: 5 (E6K, V11I, C38A, K53A, T63A, C68A, C76A, M86C, C127A) (human) (UniProt Q14116)
Chain of IL-18 polypeptide SEQ ID NO: 5 (E6K, V11I, C38A, K53A, T63A, C68A, C76A, M86C, C127A) (human) (Q14116 other isoform, or with tags, fused parts or gaps with the stated changes): as the sequence (Q14116 37-193 V47I/C74A/C112A/S141I/C163A) above, with E6K, K53A, T63A, C68A, M86C, I105S counted along it

[24] = target: C150 (V11I, T34A, C38A, K53A, C76A, C127A) (human) (UniProt Q14116)
Chain of C150 (V11I, T34A, C38A, K53A, C76A, C127A) (human) (Q14116 37-193 V47I/T70A/C74A/K89A/C112A/C163A): as the sequence (Q14116 37-193 V47I/C74A/C112A/S141I/C163A) above, with T34A, K53A, I105S counted along it

[25] = target: C155 (V11I, C38A, D40A, K53A, C76A, C127A) (human) (UniProt Q14116)
Chain of C155 (V11I, C38A, D40A, K53A, C76A, C127A) (human) (Q14116 37-193 V47I/C74A/D76A/K89A/C112A/C163A): as the sequence (Q14116 37-193 V47I/C74A/C112A/S141I/C163A) above, with D40A, K53A, I105S counted along it

[26] = target: C143 (V11I, C38A, K53A, C76A, C127A) (human) (UniProt Q14116)
Chain of C143 (V11I, C38A, K53A, C76A, C127A) (human) (Q14116 37-193 V47I/C74A/K89A/C112A/C163A): as the sequence (Q14116 37-193 V47I/C74A/C112A/S141I/C163A) above, with K53A, I105S counted along it

[27] = target: C156 (V11I, C38A, N41A, K53A, C76A, C127A) (human) (UniProt Q14116)
Chain of C156 (V11I, C38A, N41A, K53A, C76A, C127A) (human) (Q14116 37-193 V47I/C74A/N77A/K89A/C112A/C163A): as the sequence (Q14116 37-193 V47I/C74A/C112A/S141I/C163A) above, with N41A, K53A, I105S counted along it

[28] = target: C151 (V11I, D35A, C38A, K53A, C76A, C127A) (human) (UniProt Q14116)
Chain of C151 (V11I, D35A, C38A, K53A, C76A, C127A) (human) (Q14116 37-193 V47I/D71A/C74A/K89A/C112A/C163A): as the sequence (Q14116 37-193 V47I/C74A/C112A/S141I/C163A) above, with D35A, K53A, I105S counted along it

[29] = target: C159 (V11I, C38A, K53A, C76A, H109A, C127A) (human) (UniProt Q14116)
Chain of C159 (V11I, C38A, K53A, C76A, H109A, C127A) (human) (Q14116 37-193 V47I/C74A/K89A/C112A/H145A/C163A): as the sequence (Q14116 37-193 V47I/C74A/C112A/S141I/C163A) above, with K53A, I105S, H109A counted along it

[30] = target: C158 (V11I, C38A, K53A, C76A, G108A, C127A) (human) (UniProt Q14116)
Chain of C158 (V11I, C38A, K53A, C76A, G108A, C127A) (human) (Q14116 37-193 V47I/C74A/K89A/C112A/G144A/C163A): as the sequence (Q14116 37-193 V47I/C74A/C112A/S141I/C163A) above, with K53A, I105S, G108A counted along it

[31] = target: C157 (V11I, C38A, K53A, C76A, C127A, D132A) (human) (UniProt Q14116)
[32] = target: IL-18 polypeptide SEQ ID NO: 6 (E6K, V11I, C38A, K53A, T63A, C68A, C76A, D98C, C127A) (human) (UniProt Q14116)
Chain of IL-18 polypeptide SEQ ID NO: 6 (E6K, V11I, C38A, K53A, T63A, C68A, C76A, D98C, C127A) (human) (Q14116 other isoform, or with tags, fused parts or gaps with the stated changes): as the sequence (Q14116 37-193 V47I/C74A/C112A/S141I/C163A) above, with E6K, K53A, T63A, C68A, D98C, I105S counted along it

[33] = target: IL-18 polypeptide SEQ ID NO: 39 (E06K, K53A) (human) (UniProt Q14116)
Chain of IL-18 polypeptide SEQ ID NO: 39 (E06K, K53A) (human) (Q14116 37-193 E42K/K89A): as the sequence (Q14116 37-193 Y37G/F38A/E42K/M87G/K89A/D90A/S91A/T99A) above, with G1Y, A2F, G51M, A54D, A55S, A63T counted along it

[34] = target: IL-18 polypeptide SEQ ID NO: 42 (E06K, K53A, S55A, T63A) (human) (UniProt Q14116)
Chain of IL-18 polypeptide SEQ ID NO: 42 (E06K, K53A, S55A, T63A) (human) (Q14116 37-193 E42K/K89A/S91A/T99A): as the sequence (Q14116 37-193 Y37G/F38A/E42K/M87G/K89A/D90A/S91A/T99A) above, with G1Y, A2F, G51M, A54D counted along it

[35] = target: IL-18 polypeptide SEQ ID NO: 38 (E06K) (human) (UniProt Q14116)
Chain of IL-18 polypeptide SEQ ID NO: 38 (E06K) (human) (Q14116 37-193 E42K): as the sequence (Q14116 37-193 V47I/C74A/C112A/S141I/C163A) above, with E6K, I11V, A38C, A76C, I105S, A127C counted along it

Chain of IL-18 polypeptide SEQ ID NO: 54 (E06K, K53A, C38S, C68S, C76S, C127S, K70C) (human) (Q14116 37-193 E42K/C74S/K89A/C104S/K106C/C112S/C163S): as the sequence (Q14116 37-193 V47I/C74A/C112A/S141I/C163A) above, with E6K, I11V, A38S, K53A, C68S, K70C, A76S, I105S, A127S counted along it
Chain of IL-18 polypeptide SEQ ID NO: 59 (E6K, C38A, K53A) (human) (Q14116 other isoform, or with tags, fused parts or gaps C38A K53A C38A K53A): as the sequence (Q14116 37-193 V47I/C74A/C112A/S141I/C163A) above, with E6K, I11V, K53A, A76C, I105S, A127C counted along it

“Fc-fused human IL-18 binding protein isoform a (IL-18BPa) (from UniProt O95998 31-194) (Fc fusion)” showed an IC50 (nM), IL-18BPa inhibition of IFNγ induction, NK-92 cells [1] of 146 nM, an IC50 (nM), IL-18BPa inhibition of IFNγ induction, NK-92 cells [2] of 23.5 nM and an IC50 (nM), IL-18BPa inhibition of IFNγ induction, NK-92 cells [3] of 4.46 nM. For the same substance, the IC50 (nM), IL-18BPa inhibition of IFNγ induction, NK-92 cells [4] was over 1000 nM, the IC50 (nM), IL-18BPa inhibition of IFNγ induction, NK-92 cells [5] was 0.176 nM and the IC50 (nM), IL-18BPa inhibition of IFNγ induction, NK-92 cells [6] was 5.85 nM. For the same substance, the IC50 (nM), IL-18BPa inhibition of IFNγ induction, NK-92 cells [7] was 27.8 nM, the IC50 (nM), IL-18BPa inhibition of IFNγ induction, NK-92 cells [8] was 654 nM and the IC50 (nM), IL-18BPa inhibition of IFNγ induction, NK-92 cells [9] was 21.3 nM. It also gave an IC50 (nM), IL-18BPa inhibition of IFNγ induction, NK-92 cells [10] of over 55 nM, an IC50 (nM), IL-18BPa inhibition of IFNγ induction, NK-92 cells [11] of 0.44 nM and an IC50 (nM), IL-18BPa inhibition of IFNγ induction, NK-92 cells [12] of 3.23 nM. It also gave an IC50 (nM), IL-18BPa inhibition of IFNγ induction, NK-92 cells [13] of 1.17 nM, an IC50 (nM), IL-18BPa inhibition of IFNγ induction, NK-92 cells [14] of 0.456 nM and an IC50 (nM), IL-18BPa inhibition of IFNγ induction, NK-92 cells [15] of 15 nM. It also gave an IC50 (nM), IL-18BPa inhibition of IFNγ induction, NK-92 cells [16] of 0.189 nM, an IC50 (nM), IL-18BPa inhibition of IFNγ induction, NK-92 cells [17] of 396 nM and an IC50 (nM), IL-18BPa inhibition of IFNγ induction, NK-92 cells [18] of 1.07 nM. It also gave an IC50 (nM), IL-18BPa inhibition of IFNγ induction, NK-92 cells [19] of 780 nM, an IC50 (nM), IL-18BPa inhibition of IFNγ induction, NK-92 cells [20] of 37.3 nM and an IC50 (nM), IL-18BPa inhibition of IFNγ induction, NK-92 cells [21] of 1.62 nM. The IC50 (nM), IL-18BPa inhibition of IFNγ induction, NK-92 cells [22] was 47.6 nM, the IC50 (nM), IL-18BPa inhibition of IFNγ induction, NK-92 cells [23] was 62.4 nM and the IC50 (nM), IL-18BPa inhibition of IFNγ induction, NK-92 cells [24] was 3.62 nM. For the same substance, the IC50 (nM), IL-18BPa inhibition of IFNγ induction, NK-92 cells [25] was 0.681 nM, the IC50 (nM), IL-18BPa inhibition of IFNγ induction, NK-92 cells [26] was 7.52 nM and the IC50 (nM), IL-18BPa inhibition of IFNγ induction, NK-92 cells [27] was 6.08 nM. It also gave an IC50 (nM), IL-18BPa inhibition of IFNγ induction, NK-92 cells [28] of 7.85 nM, an IC50 (nM), IL-18BPa inhibition of IFNγ induction, NK-92 cells [29] of 3.18 nM and an IC50 (nM), IL-18BPa inhibition of IFNγ induction, NK-92 cells [30] of 1.81 nM. For the same substance, the IC50 (nM), IL-18BPa inhibition of IFNγ induction, NK-92 cells [31] was 3.98 nM, the IC50 (nM), IL-18BPa inhibition of IFNγ induction, NK-92 cells [32] was 5.85 nM and the IC50 (nM), IL-18BPa inhibition of IFNγ induction, NK-92 cells [33] was over 703 nM. For the same substance, the IC50 (nM), IL-18BPa inhibition of IFNγ induction, NK-92 cells [34] was 1060 nM and the IC50 (nM), IL-18BPa inhibition of IFNγ induction, NK-92 cells [35] was 7.79 nM.
